Source: the MegaScale stability set (Tsuboyama et al. 2023)

B1: r11_951_TrROS_Hall (parent)
chain: KKKYVIKVYFEDTGKEVEIEAESKEEALEAAKRLAEELGLKIKKVEIYP
B2: r4_43_TrROS_Hall (parent)
chain: DLVTIKVPLENLEEIKKAAEKAGFKIVSISYDKENKEVTIVIEKKK

Variants of: B1
Test: folding stability dG (cDNA display proteolysis); higher = more stable
Settings: PBS, room temperature

Folding stability dG [kcal/mol], by site and new letter:
Y4: F 4.2; S 3.36; T 3.74; L 3.93; V 4.58; Q 3.55; W 4.31; A 3.08; E 2.73; M 3.98; N 2.92; K 2.9; G 2.47; D 2.33; P 2.44; I 4.29; H 3.58; C 3.85; R 2.98
V8: F 4.61; M 4.28; I 4.47; N 1.36; Q 1.52; K 0.16; E 0.978; L 4.25; G 2.51; P 0.881; H 1.38; D 1.26; A 3.59; C 3.91
V5: H 4.32; W 4.62; T 4.47; D 3; F 4.42; R 4.66; L 4.13; K 4.63; M 4.31; Q 4.27; S 4.3; G 3.95; Y 4.37; A 4.35; C 3.83; N 4.12; I 4.29; E 3.42; P 2.38
K1: H 4.46; W 4.38; F 4.54; T 4.5; D 4.22; R 4.71; Y 4.52; M 4.8; S 4.25; I 4.6; N 4.47; L 4.52; V 4.51; P 4.64; Q 4.6; E 4.16; A 4.25; G 4.64; C 4.57
I6: T 3.59; R 0.95; D 0.044; A 4.12; C 3.63; S 3.42; H 2.82; K 0.69; E 1.26; Y 4.79; L 4.34; P -0.197; N 1.53; M 4.46; V 4.06; W 4.67; Q 1.59; G 3.82; F 4.55
K2: H 4.51; P 3.73; R 4.48; F 4.57; W 4.66; G 4.29; N 4.24; L 4.61; T 4.46; I 4.36; C 4.46; Q 4.34; A 4.43; D 3.85; S 4.52; M 4.59; V 4.34; E 4.29; Y 4.42
K7: Y 4.13; D 2.75; S 3.73; I 4.11; P 1.45; H 4.19; C 3.91; T 4.07; Q 3.75; L 4.09; G 3.32; A 3.95; W 4.45; F 4.21; N 3.9; E 3.12; R 4.64; M 4.1; V 4.1
K3: R 4.26; D 3.86; M 4.59; Y 4.54; L 4.63; A 4.46; G 4.03; E 3.9; P 4.49; H 4.39; S 4.52; W 4.83; F 4.64; I 4.27; N 4.11; T 4.4; Q 4.28; V 4.24; C 4.24

Variants of: B2
Test: as above
Settings: PBS, room temperature

Folding stability dG [kcal/mol] of substitutions, site by site:
I42: A 3.53; C 3.24; E 1.39; V 3.46; K 2.34; R 2.38; P -0.342; S 2.75; D 0.038; M 3.85; L 3.79; F 4.17; G 2.97; T 3.03; N 0.933; Y 4.47; Q 2.84; W 4.19; H 2.83
T39: Y 3.83; E 3.22; I 3.66; H 3.47; C 3.2; R 3.57; Q 3.36; S 3.54; G 2.85; D 3.21; W 4.01; V 3.56; L 3.36; F 3.69; M 3.52; A 3.4; N 3.14; P -0.044; K 3.42
V38: H 2.85; L 3.71; K 1.02; T 3.23; I 3.66; P 1.79; D 0.46; Y 4.2; M 3.43; W 4.33; E 0.699; F 3.57; G 3.18; R 1.31; N 2.11; Q 1.74; S 3.12; C 3.57; A 3.79
E43: K 3.36; S 3.51; N 3.78; F 4.59; A 3.71; R 3.76; T 3.92; P 2.34; H 3.88; Y 4.32; G 3.26; W 4.7; I 3.54; L 4.39; Q 3.64; M 4.04; C 4.02; V 3.63; D 3.9
K44: I 3.93; W 4.25; Q 3.52; C 3.76; R 3.83; T 4.11; Y 4.68; G 3.73; F 4.48; N 3.53; V 3.92; L 3.96; A 3.79; P 3.55; D 3.54; S 3.49; E 3.58; H 3.73; M 3.96
I40: C 2.81; W 1.82; L 3.98; T 1.73; N -0.494; S 0.271; Q 0.343; A 2.62; V 3.81; H -0.04; F 3.93; M 3.77; G 0.285; Y 2.75
E37: C 3.8; Q 3.59; A 3.75; T 3.88; F 3.93; P 2.62; G 3.72; L 3.62; Y 3.9; V 4.14; S 3.81; W 3.92; N 3.62; H 3.86; D 3.49; K 3.45; M 3.64; I 3.85; R 3.53
V41: I 3.64; C 3.33; Q 3.5; S 3.51; Y 3.71; D 2.77; T 3.42; E 3.48; R 3.47; M 3.48; A 3.49; K 3.47; F 3.76; H 3.26; G 3.4; L 3.91; N 3.34; W 4.13
K45: D 3.94; R 3.94; M 3.93; A 3.92; L 3.95; Q 3.73; E 3.5; C 3.87; S 3.72; G 3.87; P 3.64; N 3.84; H 3.86; W 4.49; I 3.87; F 4.41; T 3.99; Y 4.47; V 4.13
K46: D 3.55; Q 3.86; M 3.55; N 3.49; Y 4.33; H 4.17; I 3.61; T 3.82; W 4.4; R 3.68; F 4.31; V 3.93; G 3.38; P 3.71; A 3.52; S 3.72; E 3.84; L 3.65; C 3.83
K36: V 3.32; Y 3.61; W 3.66
